From the supplement of paper PMC7877785
± gives the uncertainty stated by the source.

Assay: self-splicing fitness, log relative to wild type (ln ratio); higher = more splicing; Tetrahymena group I intron in knt gene, E. coli kanamycin selection, DiMSum; sequences stand for … in CUCUCU…GGAGGGAAAAGUUAUCAGGCAUGCACCUGGUAGCUAGUCUUUAAACCAAUAGAUUGCAUCGGUUUAAAAGGCAAGACCGUCAAAUUGCGGGAAAGGGGUCAACAGCCGUUCAGUACCAAGUCUCAGGGGAAACUUUGAGAUGGCCUUGCAAAGGGUAUGGUAAUAAGCUGACGGACAUGGUCCUAACCACGCAGCCAAGUCCUAAGUCAACAGAUCUUCUGUUGAUAUGGAUGCAGUUCACAGACUAAAUGUCGGUCGGGGAAGAUGUAUUCUUCUCAUAAGAUAUAGUCGGACCUCUCCUUAAUGGGAGCUAGCGGAUGAAGUGAUGCAACACUGGAGCCGCUGGGAACUAAUUUGUAUGCGAAAGUAUAUUGAUUAGUUUUGGAGUACUCGUGGUCG
Outline: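 Pooled colonies went to amplicon sequencing on an Illumina HiSeq 2500 after six replicate transformations. The plates were LB agar with 100 μg/mL carbenicillin, 50 μM IPTG and 0.2% rhamnose, with or without 25 μg/mL kanamycin, incubated overnight at 37°C or 30°C. The E. coli BL21(DE3) library had all eight P1ex-region intron nucleotides randomised, the intron placed in the knt kanamycin-resistance gene on pET-22b(+). DiMSum fitness is the error-weighted combination of replicate fold changes, kanamycin against none, normalised to wild type.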

Sequence	self-splicing fitness (ln) (30 °C)	self-splicing fitness (ln) (37 °C)
GGUAAGCAAUAUUACGUUCC	-2.47 ± 0.18	-2.85 ± 0.24
GGUAAGCAAUAUUACGUUUU	-2.02 ± 0.12	-0.929 ± 0.14
GGUCAGCAAUAUUACGAAAG	-1.78 ± 0.084	-1.22 ± 0.12
GGUCAGCAAUAUUACGAAGA	-1.72 ± 0.18	-0.837 ± 0.19
GGUCAGCAAUAUUACGACGA	-0.308 ± 0.072	0.501 ± 0.11
GGUCAGCAAUAUUACGAUCG	0.0558 ± 0.12	0.097 ± 0.16
GGUCAGCAAUAUUACGAUGA	-0.626 ± 0.087	0.0621 ± 0.099
GGUCAGCAAUAUUACGAUGU	-0.0366 ± 0.056	0.261 ± 0.076
GGUCAGCAAUAUUACGCAAG	-1.92 ± 0.17	-0.453 ± 0.16
GGUCAGCAAUAUUACGCACA	-0.667 ± 0.082	0.412 ± 0.12
GGUCAGCAAUAUUACGCCUA	-0.826 ± 0.12	-0.243 ± 0.14
GGUCAGCAAUAUUACGCGAG	-1.93 ± 0.13	-0.499 ± 0.13
GGUCAGCAAUAUUACGCGGA	-2.04 ± 0.47	-2.17 ± 0.41
GGUCAGCAAUAUUACGCUAC	-3.55 ± 0.28	-2.17 ± 0.16
GGUCAGCAAUAUUACGCUAU	-1.32 ± 0.092	-1.03 ± 0.096
GGUCAGCAAUAUUACGGAUG	-0.625 ± 0.095	-0.309 ± 0.097
GGUCAGCAAUAUUACGGCAG	-0.557 ± 0.081	-0.497 ± 0.11
GGUCAGCAAUAUUACGGCUA	0.0808 ± 0.098	0.494 ± 0.12
GGUCAGCAAUAUUACGGGAA	-1.5 ± 0.16	-0.702 ± 0.15
GGUCAGCAAUAUUACGGGGC	-4.04 ± 0.33	-1.11 ± 0.4
GGUCAGCAAUAUUACGUAUA	-1.7 ± 0.18	-0.369 ± 0.18
GGUCAGCAAUAUUACGUAUU	-0.159 ± 0.055	0.511 ± 0.071
GGUCAGCAAUAUUACGUCAU	-0.37 ± 0.088	0.00388 ± 0.12
GGUGAGCAAUAUUACGAACU	-2.18 ± 0.42	
GGUGAGCAAUAUUACGACCG	-0.141 ± 0.11	0.778 ± 0.19

Sequence	self-splicing fitness (ln) (30 °C)	self-splicing fitness (ln) (37 °C)
GGUGAGCAAUAUUACGACGU	-0.578 ± 0.13	-0.013 ± 0.15
GGUGAGCAAUAUUACGAGAC	-2.82 ± 0.33	-2.01 ± 0.46
GGUGAGCAAUAUUACGAGUG	-2.19 ± 0.41	-2.55 ± 0.27
GGUGAGCAAUAUUACGCACA	-1.07 ± 0.15	-0.679 ± 0.17
GGUGAGCAAUAUUACGCCAC	-1.24 ± 0.44	
GGUGAGCAAUAUUACGCCCU	-1.66 ± 0.41	
GGUGAGCAAUAUUACGCUAA	-3.69 ± 0.35	-1.78 ± 0.21
GGUGAGCAAUAUUACGCUCU	-3.87 ± 0.42	-2.42 ± 0.41
GGUGAGCAAUAUUACGCUUG	-3.71 ± 0.29	-3.44 ± 0.33
GGUGAGCAAUAUUACGGUGG	-3.06 ± 0.26	-2.88 ± 0.32
GGUGAGCAAUAUUACGUUCA		-1.92 ± 0.47
GGUGAGCAAUAUUACGUUGG	-3.52 ± 0.32	-0.982 ± 0.36
GGUUAGCAAUAUUACGACUA	0.135 ± 0.11	0.423 ± 0.14
GGUUAGCAAUAUUACGACUG	-0.729 ± 0.1	-0.796 ± 0.12
GGUUAGCAAUAUUACGAGUU	-1.87 ± 0.15	-0.221 ± 0.12
GGUUAGCAAUAUUACGAUCG	-0.314 ± 0.14	-0.207 ± 0.27
GGUUAGCAAUAUUACGAUGU	-0.65 ± 0.14	-0.087 ± 0.15
GGUUAGCAAUAUUACGCACA	-0.431 ± 0.1	-0.339 ± 0.14
GGUUAGCAAUAUUACGCAGA	-1.17 ± 0.24	-2.02 ± 0.26
GGUUAGCAAUAUUACGCGAC	-2.02 ± 0.34	-1.33 ± 0.27
GGUUAGCAAUAUUACGCUCA	-1.34 ± 0.2	-0.632 ± 0.19
GGUUAGCAAUAUUACGCUUU	-2.01 ± 0.13	0.0831 ± 0.14
GGUUAGCAAUAUUACGGCCC	-1.23 ± 0.43	
GGUUAGCAAUAUUACGGGUA	-1.11 ± 0.22	-1.39 ± 0.19
GGUUAGCAAUAUUACGGGUC	-2.03 ± 0.24	-0.805 ± 0.18

Sequence	self-splicing fitness (ln) (30 °C)	self-splicing fitness (ln) (37 °C)
GGUUAGCAAUAUUACGUAGC	-2.18 ± 0.16	-1.97 ± 0.17
GGUUAGCAAUAUUACGUAUU	-1.14 ± 0.11	-0.191 ± 0.1
GGUUAGCAAUAUUACGUCAC		-1.82 ± 0.23
GGUUAGCAAUAUUACGUCCC		-2.36 ± 0.34
GGUUAGCAAUAUUACGUGCC	-2 ± 0.46	
GGUUAGCAAUAUUACGUGGU	-2.69 ± 0.18	-0.78 ± 0.17
GGUUAGCAAUAUUACGUUAA	-2.32 ± 0.19	-0.699 ± 0.16
GGUUAGCAAUAUUACGUUAU	-1.61 ± 0.1	-0.954 ± 0.1
GGUUAGCAAUAUUACGUUCG	-0.206 ± 0.089	0.151 ± 0.11
GGUUAGCAAUAUUACGUUCU	-0.833 ± 0.042	-0.236 ± 0.052
GUAAAGCAAUAUUACGAAAU	-0.837 ± 0.078	-0.128 ± 0.1
GUAAAGCAAUAUUACGAACC	-2.39 ± 0.29	-2.8 ± 0.36
GUAAAGCAAUAUUACGAAUG	-2.8 ± 0.14	-1.23 ± 0.2
GUAAAGCAAUAUUACGACAG	-2.12 ± 0.17	-2.22 ± 0.25
GUAAAGCAAUAUUACGACGC	0.577 ± 0.16	0.0941 ± 0.19
GUAAAGCAAUAUUACGAGGG	-3.57 ± 0.24	
GUAAAGCAAUAUUACGAUAU	-0.349 ± 0.087	-0.0732 ± 0.11
GUAAAGCAAUAUUACGAUCA	-0.396 ± 0.11	-0.197 ± 0.11
GUAAAGCAAUAUUACGCCAG	-1.89 ± 0.083	-1.21 ± 0.14
GUAAAGCAAUAUUACGCCGA	-0.859 ± 0.11	-0.839 ± 0.14
GUAAAGCAAUAUUACGCCUG	-0.223 ± 0.15	0.555 ± 0.17
GUAAAGCAAUAUUACGCGAC	-0.509 ± 0.26	1.71 ± 0.45
GUAAAGCAAUAUUACGCUGG	-0.164 ± 0.086	-0.981 ± 0.14
GUAAAGCAAUAUUACGGAUG	-2.97 ± 0.24	-0.613 ± 0.19
GUAAAGCAAUAUUACGGCGU	-0.369 ± 0.069	0.409 ± 0.11

Sequence	self-splicing fitness (ln) (30 °C)	self-splicing fitness (ln) (37 °C)
GUAAAGCAAUAUUACGGGAG	-3.68 ± 0.25	-1.67 ± 0.14
GUAAAGCAAUAUUACGGGUU	-1.72 ± 0.13	-1.86 ± 0.18
GUAAAGCAAUAUUACGGUCA	-0.163 ± 0.072	0.362 ± 0.097
GUAAAGCAAUAUUACGUGAC	-2.09 ± 0.076	-0.885 ± 0.078
GUAAAGCAAUAUUACGUGGU	-3.26 ± 0.12	-1.11 ± 0.095
GUAAAGCAAUAUUACGUGUU	-2.69 ± 0.098	-0.867 ± 0.11
GUACAGCAAUAUUACGAACG	-1.92 ± 0.17	-1.22 ± 0.19
GUACAGCAAUAUUACGACAA	-1.77 ± 0.14	-0.826 ± 0.12
GUACAGCAAUAUUACGACAU	-0.299 ± 0.012	0.127 ± 0.032
GUACAGCAAUAUUACGACCU	-0.715 ± 0.21	-0.152 ± 0.24
GUACAGCAAUAUUACGACUC	-0.243 ± 0.06	0.473 ± 0.068
GUACAGCAAUAUUACGAGUU	-1.7 ± 0.094	-1.36 ± 0.12
GUACAGCAAUAUUACGAUAC	-2.35 ± 0.21	-2.52 ± 0.22
GUACAGCAAUAUUACGAUCA	-1.83 ± 0.13	-0.392 ± 0.2
GUACAGCAAUAUUACGCAUC	-3.74 ± 0.23	-1.36 ± 0.19
GUACAGCAAUAUUACGCCAA		-1.7 ± 0.29
GUACAGCAAUAUUACGCCCG	-1.85 ± 0.14	-1.38 ± 0.2
GUACAGCAAUAUUACGCCGC	-3.01 ± 0.24	-2.46 ± 0.45
GUACAGCAAUAUUACGCUGA	-2.47 ± 0.12	-1.33 ± 0.1
GUACAGCAAUAUUACGGAAU	-2.76 ± 0.11	-1.46 ± 0.12
GUACAGCAAUAUUACGGCAU	-0.301 ± 0.081	-0.278 ± 0.11
GUACAGCAAUAUUACGGCGU	-0.577 ± 0.069	0.482 ± 0.085
GUACAGCAAUAUUACGGGAA	-3.59 ± 0.25	-2.24 ± 0.22
